Experimental data taken from publication PMC11672753 (Plant Biotechnology Journal, 2024).

B1: M15 (plant-produced COVA2-15, conventional IgG1) (antibody, V domains shown)
VH: QVQLLESGGGLVQPGGSLRLSCAASGFTFSSYAMSWVRQAPGKGLEWASAISGSGGSTYYADSVEGRFTISRDNSKNTLYLQMNSLRAEDTAVYYCAKDTGYCGDDCYIKLIRGGPDYWGQGTLVTVSS
VL: DIVMTQSPLSLPVTLGQPASISCRSSQSLVYSDGNTFLNWFQQRPGQSPRRLIYQVSNRDSGVPDRFSGSGSGTDFTLKISRVEAEDVGVYYCMQGTHWPRTFGQGTKLEIK
B2: S15 (plant-produced COVA2-15, single-chain (sc)Fv-Fc format) (Fc fusion, human)
VH: B1 VH
VL: B1 VL

Target: T1, SARS-CoV-2 RBD (Wuhan), hexahistidine-tagged (SARS-CoV-2, UniProt P0DTC2)
T1 construct: also called recombinant RBD protein
Assay: BLI
Conditions: both partners purified

Binder | binding result
B1 | binds
B2 | binds
